Results taken from doi:10.1101/2022.08.03.502629.

Biological target: antithrombin (UniProt P01008)
Assay: SPR

Chain of UniProt P01008 (P01008 33-464): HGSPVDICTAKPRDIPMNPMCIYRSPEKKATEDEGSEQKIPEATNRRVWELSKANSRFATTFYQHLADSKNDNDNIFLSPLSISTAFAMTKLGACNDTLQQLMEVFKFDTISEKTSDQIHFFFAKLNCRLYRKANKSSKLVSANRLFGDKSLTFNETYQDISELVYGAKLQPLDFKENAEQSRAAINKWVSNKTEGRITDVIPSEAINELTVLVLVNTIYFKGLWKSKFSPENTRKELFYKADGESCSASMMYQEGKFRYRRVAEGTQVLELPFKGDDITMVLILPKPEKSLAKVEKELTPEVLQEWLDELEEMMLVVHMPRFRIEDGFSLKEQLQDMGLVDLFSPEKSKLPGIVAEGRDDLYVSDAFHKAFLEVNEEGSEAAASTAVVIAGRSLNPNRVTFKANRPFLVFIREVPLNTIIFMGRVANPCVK

Substance: K96Y S195A Gla-domainless factor Xa (domain or fragment)
- Kd: 460 nM

Substance: S195A Gla-domainless factor Xa (domain or fragment)
- Kd: 416 nM
